The target in one test is T1, co-activator RIP140 (Homo sapiens, UniProt P48552).
T1 sequence (P48552 1-1158): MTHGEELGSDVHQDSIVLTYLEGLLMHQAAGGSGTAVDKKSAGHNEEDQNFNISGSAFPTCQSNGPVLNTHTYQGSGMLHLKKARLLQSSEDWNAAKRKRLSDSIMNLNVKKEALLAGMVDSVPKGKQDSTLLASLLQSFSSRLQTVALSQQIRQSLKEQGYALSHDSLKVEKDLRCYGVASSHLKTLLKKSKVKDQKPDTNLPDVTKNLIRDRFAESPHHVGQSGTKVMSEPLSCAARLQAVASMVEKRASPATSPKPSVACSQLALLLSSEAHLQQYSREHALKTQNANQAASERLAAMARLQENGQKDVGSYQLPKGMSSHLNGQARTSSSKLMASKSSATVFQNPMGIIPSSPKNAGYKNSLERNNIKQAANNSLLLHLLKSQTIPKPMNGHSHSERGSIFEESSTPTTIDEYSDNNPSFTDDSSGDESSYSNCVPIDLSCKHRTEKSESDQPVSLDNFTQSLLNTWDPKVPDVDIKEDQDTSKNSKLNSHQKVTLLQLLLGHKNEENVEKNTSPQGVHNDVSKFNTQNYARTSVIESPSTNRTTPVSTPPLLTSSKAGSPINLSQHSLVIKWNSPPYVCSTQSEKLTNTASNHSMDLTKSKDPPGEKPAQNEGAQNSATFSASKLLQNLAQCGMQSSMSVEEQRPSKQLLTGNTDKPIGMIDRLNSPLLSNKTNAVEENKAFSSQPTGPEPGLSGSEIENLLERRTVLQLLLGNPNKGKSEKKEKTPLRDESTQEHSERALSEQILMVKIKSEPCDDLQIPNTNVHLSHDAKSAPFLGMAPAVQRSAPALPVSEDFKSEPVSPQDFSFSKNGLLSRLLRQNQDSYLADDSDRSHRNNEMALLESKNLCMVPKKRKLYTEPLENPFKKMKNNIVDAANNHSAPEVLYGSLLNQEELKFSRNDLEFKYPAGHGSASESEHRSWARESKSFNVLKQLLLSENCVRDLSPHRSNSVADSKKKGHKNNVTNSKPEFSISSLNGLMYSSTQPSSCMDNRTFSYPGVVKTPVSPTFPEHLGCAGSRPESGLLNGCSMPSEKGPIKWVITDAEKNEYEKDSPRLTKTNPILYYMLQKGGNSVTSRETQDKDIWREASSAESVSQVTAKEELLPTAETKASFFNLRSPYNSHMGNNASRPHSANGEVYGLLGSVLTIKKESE
T1 sequence (Q14192 1-279 partner): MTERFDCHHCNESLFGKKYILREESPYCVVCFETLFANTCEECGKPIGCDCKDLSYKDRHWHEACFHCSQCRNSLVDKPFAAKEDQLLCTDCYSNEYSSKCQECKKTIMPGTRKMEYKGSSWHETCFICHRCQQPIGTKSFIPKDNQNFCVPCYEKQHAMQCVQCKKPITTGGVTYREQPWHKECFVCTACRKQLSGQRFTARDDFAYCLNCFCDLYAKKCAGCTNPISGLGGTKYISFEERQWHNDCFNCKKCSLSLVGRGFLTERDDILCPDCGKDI
Nature of the test: GST-protein-interaction test. In kind it is binding. To be noted: in vitro.

A further test addresses co-activator SRC1 (Homo sapiens, UniProt Q15788). Nature of the test: GST-protein-interaction test. In kind it is binding. To be noted: in vitro.
The subject of a further test is DNA. Description: DNA binding.
A further test deals with T2, androgen receptor (Homo sapiens, UniProt P10275).
T2 construct: expressed in transfected cells; host or cells: 293 cells
T2 sequence (P10275 1-920): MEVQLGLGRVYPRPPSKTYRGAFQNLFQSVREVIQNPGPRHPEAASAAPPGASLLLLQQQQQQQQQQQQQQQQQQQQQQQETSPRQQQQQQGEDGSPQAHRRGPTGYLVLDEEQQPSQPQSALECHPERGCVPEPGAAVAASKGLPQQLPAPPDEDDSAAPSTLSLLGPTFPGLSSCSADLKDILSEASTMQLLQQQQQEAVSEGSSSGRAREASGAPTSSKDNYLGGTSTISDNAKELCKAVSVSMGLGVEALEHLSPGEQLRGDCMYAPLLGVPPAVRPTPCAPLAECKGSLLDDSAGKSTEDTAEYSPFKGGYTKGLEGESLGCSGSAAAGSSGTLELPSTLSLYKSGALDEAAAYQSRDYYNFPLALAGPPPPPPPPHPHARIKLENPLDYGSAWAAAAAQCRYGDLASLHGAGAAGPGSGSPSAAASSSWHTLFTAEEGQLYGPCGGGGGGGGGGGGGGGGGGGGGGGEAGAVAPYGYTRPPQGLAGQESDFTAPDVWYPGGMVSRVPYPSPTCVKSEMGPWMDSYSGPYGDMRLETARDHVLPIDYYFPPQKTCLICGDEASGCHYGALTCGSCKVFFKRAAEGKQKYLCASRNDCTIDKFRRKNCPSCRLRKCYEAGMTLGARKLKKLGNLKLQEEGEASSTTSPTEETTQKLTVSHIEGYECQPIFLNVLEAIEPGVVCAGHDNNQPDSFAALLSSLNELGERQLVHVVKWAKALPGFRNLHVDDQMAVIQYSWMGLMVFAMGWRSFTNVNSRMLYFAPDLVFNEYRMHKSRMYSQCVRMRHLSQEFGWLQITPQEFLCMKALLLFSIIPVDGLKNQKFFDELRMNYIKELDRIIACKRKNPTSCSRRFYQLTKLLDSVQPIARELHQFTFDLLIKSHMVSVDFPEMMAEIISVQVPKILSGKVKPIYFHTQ
T2 sequence (Q14192 1-279 partner): T1 sequence (Q14192 1-279 partner)
Description: androgen receptor co-activation, MMTV-LUC or proteasin-Luc reporter, transient transfection. It counts as cell-based. The following applies: 293 cells; with R1881; increasing amount of SLIM3-expression plasmid.

Chain of co-activator SRC1 (Q15788 whole entry): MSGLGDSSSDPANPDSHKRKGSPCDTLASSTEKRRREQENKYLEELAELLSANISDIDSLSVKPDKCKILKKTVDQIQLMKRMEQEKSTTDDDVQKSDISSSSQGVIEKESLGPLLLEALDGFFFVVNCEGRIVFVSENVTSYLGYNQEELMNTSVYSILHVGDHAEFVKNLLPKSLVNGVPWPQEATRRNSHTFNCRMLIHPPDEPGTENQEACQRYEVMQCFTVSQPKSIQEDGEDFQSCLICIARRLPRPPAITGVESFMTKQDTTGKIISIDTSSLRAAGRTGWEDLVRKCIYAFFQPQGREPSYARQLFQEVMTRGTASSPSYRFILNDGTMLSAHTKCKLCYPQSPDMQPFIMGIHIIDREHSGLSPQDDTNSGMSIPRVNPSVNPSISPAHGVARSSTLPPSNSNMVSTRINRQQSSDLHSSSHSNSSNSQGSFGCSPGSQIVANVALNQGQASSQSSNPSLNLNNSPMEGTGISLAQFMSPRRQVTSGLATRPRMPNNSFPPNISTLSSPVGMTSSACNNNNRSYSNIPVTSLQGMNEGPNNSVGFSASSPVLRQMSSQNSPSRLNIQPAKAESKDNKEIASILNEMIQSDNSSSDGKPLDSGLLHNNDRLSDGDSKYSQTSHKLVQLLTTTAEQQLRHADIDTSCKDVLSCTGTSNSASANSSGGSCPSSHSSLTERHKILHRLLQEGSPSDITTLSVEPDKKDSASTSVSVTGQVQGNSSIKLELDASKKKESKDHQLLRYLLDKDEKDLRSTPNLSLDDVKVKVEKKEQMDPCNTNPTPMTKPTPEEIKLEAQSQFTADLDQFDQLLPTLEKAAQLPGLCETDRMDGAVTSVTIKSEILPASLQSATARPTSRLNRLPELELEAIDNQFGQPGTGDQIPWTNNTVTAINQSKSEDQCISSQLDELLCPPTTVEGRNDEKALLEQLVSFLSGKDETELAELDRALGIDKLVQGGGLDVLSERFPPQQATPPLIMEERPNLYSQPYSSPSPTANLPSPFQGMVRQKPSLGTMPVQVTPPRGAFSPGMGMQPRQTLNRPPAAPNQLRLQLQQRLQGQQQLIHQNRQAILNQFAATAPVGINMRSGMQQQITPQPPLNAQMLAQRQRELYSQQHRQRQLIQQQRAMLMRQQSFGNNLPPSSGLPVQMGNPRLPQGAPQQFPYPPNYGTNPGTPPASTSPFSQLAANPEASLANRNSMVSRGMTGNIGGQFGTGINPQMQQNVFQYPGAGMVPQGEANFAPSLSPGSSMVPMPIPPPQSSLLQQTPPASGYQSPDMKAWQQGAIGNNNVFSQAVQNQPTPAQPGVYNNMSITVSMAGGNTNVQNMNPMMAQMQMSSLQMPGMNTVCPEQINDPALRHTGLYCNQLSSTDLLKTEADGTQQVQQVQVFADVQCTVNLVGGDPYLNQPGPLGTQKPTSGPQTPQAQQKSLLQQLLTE

On to “SLIM3: LIM-domain protein of 279 amino acids, co-activator for nuclear receptors AR and ERβ”, for which the interaction with co-activator entry is given as “interacts” in the test with co-activator RIP140 and “no interaction” with co-activator SRC1. The “binding to DNA” value in the test on DNA is “does not bind”. In addition, in the test with androgen receptor, the “additional super-induction of the reporter gene” value is on record as “three-fold to five-fold”.

Source of the values: patent US20020004209A1, “Use of SLIM3 for binding to molecules” (Schering Aktiengesellschaft Patents, priority 1999, published 2002).
